Measured values: patent US20190359687A1 (Bayer, published 2019)

T1: recombinant human GPA ectodomain (human, UniProt P02724 20-91)
T1 construct: also called recombinant hGPA ECD; recGPA
T1 sequence: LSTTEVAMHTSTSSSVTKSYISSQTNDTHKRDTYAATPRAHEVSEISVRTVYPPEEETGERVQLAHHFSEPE

T2: human glycophorin A in the red blood cell membrane (human, UniProt P02724 20-150)
T2 construct: whole, on cells; used for intact RBC, isolated RBC membranes and transfected cells; the assay field tells which; also called GPA; hGPA
T2 sequence (looked up): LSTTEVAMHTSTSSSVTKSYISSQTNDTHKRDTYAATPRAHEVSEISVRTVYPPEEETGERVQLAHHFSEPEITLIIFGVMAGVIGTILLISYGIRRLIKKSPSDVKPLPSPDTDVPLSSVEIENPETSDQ

T3: purified human glycophorin A protein (Sigma, cat # G5017) (human, UniProt P02724 20-150)
T3 construct: mature; also called Sigma hGPA; Sigma GPA
T3 sequence (looked up): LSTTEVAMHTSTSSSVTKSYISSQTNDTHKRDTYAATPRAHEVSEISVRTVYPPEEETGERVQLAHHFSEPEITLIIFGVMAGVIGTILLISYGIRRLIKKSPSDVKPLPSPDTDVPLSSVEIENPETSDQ

T4: human glycophorin A on human red blood cells or red blood cell membranes (human, UniProt P02724 20-150)
T4 construct: whole, on cells; also called hRBC; human RBC membranes
T4 sequence (looked up): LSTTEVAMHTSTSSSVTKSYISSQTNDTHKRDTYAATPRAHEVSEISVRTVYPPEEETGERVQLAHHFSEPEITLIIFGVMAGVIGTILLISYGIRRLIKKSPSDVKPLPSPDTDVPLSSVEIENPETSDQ

B1: TPP-5348 (Fab, V domains shown)
VH: EVQLVQSGAEVKKPGASVKVSCKASGYTFTTYTIHWVRQAPGQGLEWIGYINPSSDYTRYNPKFKDRVTLTTDKSTSTAYMELRSLRSDDTAVYYCQTGTRDYWGQGTTVTVSS
VL: DIQLTQSPSFLSASVGDRVTITCSAASSVSYIYWFQQKPGKAPKLLIYATSTLPSGVPSRFSGSGSGTEYTLTISSLQPEDFATYYCHQRNSFPFTFGQGTKLEIKR
notes: also called VL: (S49A)
B2: Fab papain 6C12-24 (Fab, V domains shown)
VH: EVQLVQSGAEVKKPGASVKVSCKASGYTFTTYTIHWVRQAPGQGLEWIGYINPSSDYTRYNPKFKDRVTLTTDKSTSTAYMELRSLRSDDTAVYYCQTGTRDYWGQGTTVTVSS
VL: DIQLTQSPSFLSASVGDRVTITCSAASSVSYIYWFQQKPGKAPKLLIYSTSTLPSGVPSRFSGSGSGTEYTLTISSLQPEDFATYYCHQRNSFPFTFGQGTKLEIK
notes: also called parent: Fab 6C12-24
B3: TPP-7792 scFv with C-terminal 6xHIS tag (scFv)
scFv: DIQLTQSPSFLSASVGDRVTITCRASSSVRYIYWFQQKPGKAPKLLIYATSFRQSGVPSRFSGSGSGTEYTLTISSLQPEDFATYYCHQRNSFPYTFGQGTKLEIKGGGGSGGGGSGGGGSGGGGSEVQLVQSGAEVKKPGASVKVSCKASGYTFTTYAIHWVRQAPGQGLEWMGYINPSSGYTRYNPKFKGRVTMTRDKSTSTAYMELRSLRSDDTAVYYCWTGTRDYWGQGTTVTVSSHHHHHH
B4: TPP-7778 scFv with C-terminal 6xHIS tag (scFv)
scFv: DIQLTQSPSFLSASVGDRVTITCRASSSVRYIYWFQQKPGKAPKLLIYATSTLQSGVPSRFSGSGSGTEYTLTISSLQPEDFATYYCHQRNSFPYTFGQGTKLEIKGGGGSGGGGSGGGGSGGGGSEVQLVQSGAEVKKPGASVKVSCKASGYTFTTYAIHWVRQAPGQGLEWMGYINPSSGYTRYNPKFKHRVTMTRDKSTSTAYMELRSLRSDDTAVYYCQTGTRDYWGQGTTVTVSSHHHHHH
B5: TPP-7781 scFv with C-terminal 6xHIS tag (scFv)
scFv: DIQLTQSPSFLSASVGDRVTITCRASSSVRYIYWFQQKPGKAPKLLIYATSTLQSGVPSRFSGSGSGTEYTLTISSLQPEDFATYYCHQRNSFPYTFGQGTKLEIKGGGGSGGGGSGGGGSGGGGSEVQLVQSGAEVKKPGASVKVSCKASGYTFTTYTIHWVRQAPGQGLEWMGYINPKSGWTRYNPKFKGRVTMTRDKSTSTAYMELRSLRSDDTAVYYCQTGTRDYWGQGTTVTVSSHHHHHH
B6: TPP-7782 scFv with C-terminal 6xHIS tag (scFv)
scFv: DIQLTQSPSFLSASVGDRVTITCRASSSVRYIYWFQQKPGKAPKLLIYATSFRQSGVPSRFSGSGSGTEYTLTISSLQPEDFATYYCHQRNSFPYTFGQGTKLEIKGGGGSGGGGSGGGGSGGGGSEVQLVQSGAEVKKPGASVKVSCKASGYTFTTYTIHWVRQAPGQGLEWMGYINPSSGYTRYNPKFKGRVTMTRDKSTSTAYMELRSLRSDDTAVYYCQTGTRDYWGQGTTVTVSSHHHHHH
B7: TPP-7783 scFv with C-terminal 6xHIS tag (scFv)
scFv: DIQLTQSPSFLSASVGDRVTITCRASSSVRYIYWFQQKPGKAPKLLIYATSFRRSGVPSRFSGSGSGTEYTLTISSLQPEDFATYYCHQRNSFPYTFGQGTKLEIKGGGGSGGGGSGGGGSGGGGSEVQLVQSGAEVKKPGASVKVSCKASGYTFTTYAIHWVRQAPGQGLEWMGYINPSSGYTRYNPKFKHRVTMTRDKSTSTAYMELRSLRSDDTAVYYCWTGTRDYWGQGTTVTVSSHHHHHH
B8: TPP-7790 scFv with C-terminal 6xHIS tag (scFv)
scFv: DIQLTQSPSFLSASVGDRVTITCRASSSVRYIYWFQQKPGKAPKLLIYATSFLQSGVPSRFSGSGSGTEYTLTISSLQPEDFATYYCHQRNSFPYTFGQGTKLEIKGGGGSGGGGSGGGGSGGGGSEVQLVQSGAEVKKPGASVKVSCKASGYTFTTYAIHWVRQAPGQGLEWMGYINPSSGYTRYNPKFKHRVTMTRDKSTSTAYMELRSLRSDDTAVYYCWTGTRDYWGQGTTVTVSSHHHHHH
B9: TPP-7793 scFv with C-terminal 6xHIS tag (scFv)
scFv: DIQLTQSPSFLSASVGDRVTITCRASSSVSYIYWFQQKPGKAPKLLIYATSTLQSGVPSRFSGSGSGTEYTLTISSLQPEDFATYYCHQRNSFPYTFGQGTKLEIKGGGGSGGGGSGGGGSGGGGSEVQLVQSGAEVKKPGASVKVSCKASGYTFTRYTIHWVRQAPGQGLEWMGYINPSSGYTRYNPKFKGRVTMTRDKSTSTAYMELRSLRSDDTAVYYCWTGTRDYWGQGTTVTVSSHHHHHH
B10: TPP-7794 scFv with C-terminal 6xHIS tag (scFv)
scFv: DIQLTQSPSFLSASVGDRVTITCRASSSVRYIYWFQQKPGKAPKLLIYATSFRQSGVPSRFSGSGSGTEYTLTISSLQPEDFATYYCHQRNSFPYTFGQGTKLEIKGGGGSGGGGSGGGGSGGGGSEVQLVQSGAEVKKPGASVKVSCKASGYTFTTYAIHWVRQAPGQGLEWMGYINPSSGYTRYNPKFKHRVTMTRDKSTSTAYMELRSLRSDDTAVYYCWTGTRDYWGQGTTVTVSSHHHHHH
B11: TPP-7795 scFv with C-terminal 6xHIS tag (scFv)
scFv: DIQLTQSPSFLSASVGDRVTITCRASSSVSYIYWFQQKPGKAPKLLIYATSFLQSGVPSRFSGSGSGTEYTLTISSLQPEDFATYYCHQRNSFPYTFGQGTKLEIKGGGGSGGGGSGGGGSGGGGSEVQLVQSGAEVKKPGASVKVSCKASGYTFTTYTIHWVRQAPGQGLEWMGYINPKSGWTRYNPKFKGRVTMTRDKSTSTAYMELRSLRSDDTAVYYCQTGTRDYWGQGTTVTVSSHHHHHH
B12: TPP-7797 scFv with C-terminal 6xHIS tag (scFv)
scFv: DIQLTQSPSFLSASVGDRVTITCRASSSVRYIYWFQQKPGKAPKLLIYATSFRQSGVPSRFSGSGSGTEYTLTISSLQPEDFATYYCHQRNSFPYTFGQGTKLEIKGGGGSGGGGSGGGGSGGGGSEVQLVQSGAEVKKPGASVKVSCKASGYTFTTYTIHWVRQAPGQGLEWMGYINPSSGYTRYNPKFKGRVTMTRDKSTSTAYMELRSLRSDDTAVYYCWTGRRDYWGQGTTVTVSSHHHHHH

What was measured:
[1] = target: T1, recombinant human GPA ectodomain; test: ELISA, rec hGPA ectodomain
[2] = target: T2, human glycophorin A in the red blood …; test: ELISA, human RBC membranes;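 note: antibodies bound to isolated human red blood cell membrane ghosts coated on 96-well plates, tested 1.5 h at room temperature, bound antibody quantified with a detection antibody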
Description: In order to evaluate binding of antibodies to GPA in the native context of the red blood cell membrane we made use of isolated red blood cell membranes, also called red blood cells ghosts. These membranes are prepared by first isolating red blood cells from citrated whole blood. Citrated whole blood is layered on to Ficol and centrifuged at low speed for 20 minutes to pellet the red blood cells. The supernatant containing plasma and other blood cells is discarded and the red blood cell pellet is subsequently washed 3 times in 10 cell volumes of phosphate buffered saline (PBS). A 10 ml pellet of purified red blood cells is resuspended in 30 ml of cold low osmorality 20 mM phosphate buffer (pH7.4) and incubated for 30 mins to break open the RBC. After Centrifugation at 10,000 rpm for 30 min at 5° C. the hemoglobin containing supernatant is discarded. To the membrane pellet another 30 ml of 20 mM phosphate buffer is added and the sample centrifuged again at 10,000 rpm for 30 min at 5° C. to pellet the membrane fraction. This wash and centrifugation step is repeated another 4 times. The red blood cell membranes are then resuspended in 20 mL of PBS to achieve an equivalent of approximately 2.5E9 cells/mL and stored frozen at −20° C. Binding of antibodies to RBC ghost can be measured by ELISA in which the RBC ghost suspension (5×10⁶ in 100 ul PBS) was added to each well of flat bottom 96-well ELISA microtiter plates (2HB, Immunolon) and the plates incubated overnight at 4° C. The plates were blocked with Starting blocking buffer (Thermo Fisher) for 2 hours at room temperature (RT). Antibodies or other test molecules were added to each well and incubated for 1.5 hours at RT. After 4 washes 100 ul of an appropriate detection antibody was added to each well and incubated for 1 hour at RT. After 4 washes the detection antibody was measured using appropriate detection reagents.

[3] = target: T2, human glycophorin A in the red blood …; test: SPR (Biacore), single cycle kinetics, human RBC membranes on L1 sensor, Fab flowed over
Description: Kinetic analysis of the antibody binding to human red blood cell membranes was also performed using surface plasmon resonance (SPR) using a Biacore instrument. In this assay membranes prepared from human red blood cells were attached to a L1 sensor matrix and antibodies were flowed over the RBC membranes.

[4] = target: T3, purified human glycophorin A protein …; test: ELISA, native hGPA
[5] = target: T4, human glycophorin A on human red blood …; test: scFv 7 ug/ml on intact human RBC, unbound scFv by ELISA; pre-dilution
Description: (§1) RBC diluted to 1/10th of normal hematocrit were incubated with the set of “Top 10” purified scFv antibodies at a final concentration of 7 ug/ml for 1 hour at room temperature on a rotating shaker after which a sample was taken and the RBC were pelleted by centrifugation and the supernatant was collected. The remaining RBC suspension was diluted 200-fold in PBS buffer and incubated for a total of 2 hours at room temperature on a rotating shaker and samples were removed at 0, 5 min, 20 min, 1 h and 2 h and the RBC pelleted and the supernatant collected. […] The percentage that remains bound after dilution is an indication of the overall strength of the binding to human RBC.

[6] = target: T4, human glycophorin A on human red blood …; test: scFv on intact human RBC, unbound scFv by ELISA; 60 min after 200-fold dilution
Description: as §1

[7] = target: T4, human glycophorin A on human red blood …; test: scFv on intact human RBC, unbound scFv by ELISA; 5 min after 200-fold dilution
Description: as §1

[8] = target: T4, human glycophorin A on human red blood …; test: scFv on intact human RBC, unbound scFv by ELISA; 120 min after 200-fold dilution
Description: as §1

[9] = target: T4, human glycophorin A on human red blood …; test: scFv on intact human RBC, unbound scFv by ELISA; 0 min after 200-fold dilution
Description: as §1

[10] = target: T4, human glycophorin A on human red blood …; test: scFv on intact human RBC, unbound scFv by ELISA; 20 min after 200-fold dilution
Description: as §1

Binder | binding by ELISA relative to parental [1] | binding by ELISA relative to parental [2] | Kd [3] [nM] | koff [3] [s⁻¹] | kon [3] [M⁻¹ s⁻¹] | binding by ELISA relative to parental [4] | percentage of input scFv antibody bound [5] [%] | percentage of input scFv antibody bound [6] [%] | percentage of input scFv antibody bound [7] [%] | percentage of input scFv antibody bound [8] [%] | percentage of input scFv antibody bound [9] [%] | percentage of input scFv antibody bound [10] [%]
B1 | 1.5 | 1.76 | 25 | 0.019 | 740000 | 1.62 |  |  |  |  |  | 
B2 |  |  | 130 | 0.048 | 370000 |  |  |  |  |  |  | 
B3 |  |  |  |  |  |  | 100 | 95 | 99 | 92 | 100 | 98
B4 |  |  |  |  |  |  | 98 | 79 | 88 | 76 | 97 | 81
B5 |  |  |  |  |  |  | 97 | 93 | 94 | 92 | 97 | 93
B6 |  |  |  |  |  |  | 92 | 89 | 91 | 85 | 92 | 87
B7 |  |  |  |  |  |  | 94 | 94 | 94 | 94 | 94 | 94
B8 |  |  |  |  |  |  | 99 | 94 | 99 | 87 | 99 | 99
B9 |  |  |  |  |  |  | 92 | 81 | 92 | 79 | 92 | 84
B10 |  |  |  |  |  |  | 85 | 85 | 85 | 85 | 85 | 85
B11 |  |  |  |  |  |  | 100 | 84 | 85 | 80 | 100 | 82
B12 |  |  |  |  |  |  | 98 | 99 | 98 | 97 | 98 | 98
